Test results as given in US20260193342A1 (ZOETIS SERVICES, published 2026).
Changes are numbered by the printed parent chain. Names may count otherwise.

B1: mAb1, caninized anti-IL31 antibody 34D03, canine IgGC, N434H (antibody)
chain 1: EVQLVESGGDLVKPGGSLRLSCVASGFTFSNYGMSWVRQAPGKGLQWVATISYGGSYTYYPDNIKGRFTISRDNAKNTLYLQMNSLRAEDTAMYYCVRGYGYDTMDYWGQGTLVTVSSASTTAPSVFPLAPSCGSQSGSTVALACLVSGYIPEPVTVSWNSVSLTSGVHTFPSVLQSSGLYSLSSMVTVPSSRWPSETFTCNVAHPATNTKVDKPVAKECECKCNCNNCPCPGCGLLGGPSVFIFPPKPKDILVTARTPTVTCVVVDLDPENPEVQISWFVDSKQVQTANTQPREEQSNGTYRVVSVLPIGHQDWLSGKQFKCKVNNKALPSPIEEIISKTPGQAHQPNVYVLPPSRDEMSKNTVTLTCLVKDFFPPEIDVEWQSNGQQEPESKYRMTPPQLDEDGSYFLYSKLSVDKSRWQRGDTFICAVMHEALHHHYTQISLSHSPGK
chain 2: EIVMTQSPASLSLSQEEKVTITCKASQSVSFAGTGLMHWYQQKPGQAPKLLIYRASNLEAGVPSRFSGSGSGTDFSFTISSLEPEDVAVYYCQQSREYPWTFGQGTKLEIKRNDAQPAVYLFQPSPDQLHTGSASVVCLLNSFYPKDINVKWKVDGVIQDTGIQESVTEQDKDSTYSLSSTLTMSSTEYLSHELYSCEITHKSLPSTLIKSFQRSEC
B2: mAb1, caninized anti-IL31 antibody 34D03, canine IgGD, N434H (antibody)
chain 1: EVQLVESGGDLVKPGGSLRLSCVASGFTFSNYGMSWVRQAPGKGLQWVATISYGGSYTYYPDNIKGRFTISRDNAKNTLYLQMNSLRAEDTAMYYCVRGYGYDTMDYWGQGTLVTVSSASTTAPSVFPLAPSCGSTSGSTVALACLVSGYFPEPVTVSWNSGSLTSGVHTFPSVLQSSGLYSLSSTVTVPSSRWPSETFTCNVVHPASNTKVDKPVPKESTCKCISPCPVPESLGGPSVFIFPPKPKDILRITRTPEITCVVLDLGREDPEVQISWFVDGKEVHTAKTQPREQQFNSTYRVVSVLPIEHQDWLTGKEFKCRVNHIGLPSPIERTISKARGQAHQPSVYVLPPSPKELSSSDTVTLTCLIKDFFPPEIDVEWQSNGQPEPESKYHTTAPQLDEDGSYFLYSKLSVDKSRWQQGDTFTCAVMHEALQHHYTDLSLSHSPGK
chain 2: B1 chain 2
B3: mAb2 of Table 4A, caninized anti-NGF antibody ZTS-841, canine IgGA, N434W (antibody)
heavy: EVQLVESGGDLVKPGGSLRLSCVASGFTFSSHGMHWVRQSPGKGLQWVAVINSGGSSTYYTDAVKGRFTISRDNAKNTVYLQMNSLRAEDTAMYYCAKESVGGWEQLVGPHFDYWGQGTLVIVSSASTTAPSVFPLAPSCGSTSGSTVALACLVSGYFPEPVTVSWNSGSLTSGVHTFPSVLQSSGLHSLSSMVTVPSSRWPSETFTCNVVHPASNTKVDKPVFNECRCTDTPPCPVPEPLGGPSVLIFPPKPKDILRITRTPEVTCVVLDLGREDPEVQISWFVDGKEVHTAKTQSREQQFNGTYRVVSVLPIEHQDWLTGKEFKCRVNHIDLPSPIERTISKARGRAHKPSVYVLPPSPKELSSSDTVSITCLIKDFYPPDIDVEWQSNGQQEPERKHRMTPPQLDEDGSYFLYSKLSVDKSRWQQGDPFTCAVMHETLQWHYTDLSLSHSPGK
VL: QSVLTQPTSVSGSLGQRVTISCSGSTNNIGILGASWYQLFPGKAPKLLVYGNGNRPSGVPDRFSGADSGDSVTLTITGLQAEDEADYYCQSFDTTLGAHVFGGGTHLTVL
notes: also called ID No. 44
B4: mAb2 of Table 4A, caninized anti-NGF antibody ZTS-841, canine IgGC, N434H (antibody)
heavy: EVQLVESGGDLVKPGGSLRLSCVASGFTFSSHGMHWVRQSPGKGLQWVAVINSGGSSTYYTDAVKGRFTISRDNAKNTVYLQMNSLRAEDTAMYYCAKESVGGWEQLVGPHFDYWGQGTLVIVSSASTTAPSVFPLAPSCGSQSGSTVALACLVSGYIPEPVTVSWNSVSLTSGVHTFPSVLQSSGLYSLSSMVTVPSSRWPSETFTCNVAHPATNTKVDKPVAKECECKCNCNNCPCPGCGLLGGPSVFIFPPKPKDILVTARTPTVTCVVVDLDPENPEVQISWFVDSKQVQTANTQPREEQSNGTYRVVSVLPIGHQDWLSGKQFKCKVNNKALPSPIEEIISKTPGQAHQPNVYVLPPSRDEMSKNTVTLTCLVKDFFPPEIDVEWQSNGQQEPESKYRMTPPQLDEDGSYFLYSKLSVDKSRWQRGDTFICAVMHEALHHHYTQISLSHSPGK
VL: B3 VL
notes: also called ID No. 54
B5: mAb2 of Table 4A, caninized anti-NGF antibody ZTS-841, canine IgGD, WT (antibody)
heavy: EVQLVESGGDLVKPGGSLRLSCVASGFTFSSHGMHWVRQSPGKGLQWVAVINSGGSSTYYTDAVKGRFTISRDNAKNTVYLQMNSLRAEDTAMYYCAKESVGGWEQLVGPHFDYWGQGTLVIVSSASTTAPSVFPLAPSCGSTSGSTVALACLVSGYFPEPVTVSWNSGSLTSGVHTFPSVLQSSGLYSLSSTVTVPSSRWPSETFTCNVVHPASNTKVDKPVPKESTCKCISPCPVPESLGGPSVFIFPPKPKDILRITRTPEITCVVLDLGREDPEVQISWFVDGKEVHTAKTQPREQQFNSTYRVVSVLPIEHQDWLTGKEFKCRVNHIGLPSPIERTISKARGQAHQPSVYVLPPSPKELSSSDTVTLTCLIKDFFPPEIDVEWQSNGQPEPESKYHTTAPQLDEDGSYFLYSKLSVDKSRWQQGDTFTCAVMHEALQNHYTDLSLSHSPGK
VL: B3 VL
notes: also called ID No. 55
B6: mAb2 of Table 4A, caninized anti-NGF antibody ZTS-841, canine IgGD, N434H (antibody)
heavy: B5 heavy with N443H
VL: B3 VL
notes: also called ID No. 56
B7: mAb1, caninized anti-IL31 antibody 34D03, canine IgGD, WT (antibody)
heavy: B2 chain 1 with H436N
VL: EIVMTQSPASLSLSQEEKVTITCKASQSVSFAGTGLMHWYQQKPGQAPKLLIYRASNLEAGVPSRFSGSGSGTDFSFTISSLEPEDVAVYYCQQSREYPWTFGQGTKLEIK
notes: VH/VL: the caninized 34D03 entries of the listing; also called ID No. 37

Experiments:
[1] = target: T1, canine FcRn complex (FcRn-α subunit and β-microglobulin) (canine, UniProt A0A8I3PFR8 25-347, biotin on the BAP tag by BirA (Example 5 only)); assay: SPR (Biacore), biotinylated FcRn on SA chip, IgG flowed, pH 6, 15 C
T1 sequence (A0A8I3PFR8 entry or part of it, one chain of several): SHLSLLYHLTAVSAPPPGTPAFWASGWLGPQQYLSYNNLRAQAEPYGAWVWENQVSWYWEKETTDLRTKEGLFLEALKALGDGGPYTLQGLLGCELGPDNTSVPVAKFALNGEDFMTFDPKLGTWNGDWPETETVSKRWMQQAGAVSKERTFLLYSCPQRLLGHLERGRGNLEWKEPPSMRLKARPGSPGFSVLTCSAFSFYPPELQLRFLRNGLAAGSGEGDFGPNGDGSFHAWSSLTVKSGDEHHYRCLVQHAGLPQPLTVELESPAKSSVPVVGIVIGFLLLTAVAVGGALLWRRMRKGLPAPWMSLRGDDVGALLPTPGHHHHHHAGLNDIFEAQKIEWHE

[2] = target: T1, canine FcRn complex (FcRn-α subunit and …); assay: SPR (Biacore), biotinylated FcRn on SA chip, IgG flowed, pH 7.4, 15 C

| Binder | Kd [1] | Kd [2] |
| --- | --- | --- |
| B1 | 87.9 nM |  |
| B2 | 3.21 nM |  |
| B3 | 10.6 nM | 1520 nM |
| B4 | 20.4 nM |  |
| B5 | 71 nM |  |
| B6 | 12 nM |  |
| B7 | 34.5 nM |  |
